One experiment concerns yeast cells. The experiment in a line: Growth assay of Nub-p53core-Cub—RUra3p yeast cells on media containing 5-FOA. It counts as cell-based. The following applies: Nia fusion protein. From the text: The wild-type core domain and a destabilizing mutation V143A were further tested using a simple growth assay employing the R-ura3 reporter (see above) and selecting clones that can grow on 5-FOA. In this case the Nub (I13A) mutant Nia was used. If the Nub—X—Cub—R-ura3 fusion is […], the R-ura3 reporter will be cleaved off of the C-terminal end of Cub and subsequently be degraded by N-end rule components (see above), allowing the host yeast cell to grow on the 5-FOA selective media.
Consistent with previous results, the V143A core mutant is a destabilizing mutant when compared to the wild-type p53. […] The Nia fusion protein allows to distinguish between the cells expressing the wild type p53core (growth) and the cells expressing the V143A mutant of the core (non-growth).

Experiment [1] addresses HA-tagged Ste4p (Saccharomyces cerevisiae) (UniProt P18851). Put plainly: cell-based or functional assay.
The next experiment relates to S. cerevisiae cells. The experiment in a line: Intrapolypeptide split-ubiquitin cleavage of Nub—X—Cub-Dha fusions, anti-HA immunoblot with chemiluminescence quantification. It counts as cell-based, Saccharomyces cerevisiae. The following applies: yeast cells; for cleavage (percentage of cleaved Dha compared to the sum of cleaved and uncleaved fusion protein): 30° C., one hour induction with 100 μM CuSO4, anti-HA immunoblot. An excerpt: The isoleucine residues at position three and thirteen of Nub (Nii) were replaced by valine (Nxv; Nvx) alanine (Nxa; Nax) and glycine (Nxg; Ngx) (Johnsson et al., Proc. Natl. Acad. Sci. USA 91: 10340-44, 1994; Kellis et al., Biochemistry 28: 4914-22, 1989). The residues at position 3 and 13 are indicated by the suffix in Nub with the corresponding amino acids in the single letter code. The sixteen different combinations were first tested in the otherwise native Ub which was attached in front of the dihydrofolate reductase carrying the HA epitope at its C-terminus (Ub-Dha). The analysis of the cleaved and uncleaved protein was performed by immunodetection of the proteins with the anti-HA antibody after cell extraction and SDS-PAGE separation.
S. cerevisiae cells expressing the different Nub—X—Cub-fusions were grown at 30° C. in […] of SD medium to an OD600 of 0.8 and supplemented with 100 μM CuSO4 one hour prior to cell extraction. Cell extraction for immunoblotting was performed essentially as previously described (Johnsson et al., Embo J. 13: 2686-98, 1994). Proteins were fractionated by SDS-12.5% PAGE and electroblotted onto nitrocellulose membranes (Schleicher and Schuell, Dassel, Germany), using a semi-dry transfer system (Hoefer, Pharmacia Biotech INC., San Francisco, Calif.). Blots were incubated with a monoclonal anti-ha antibody (Babco, Richmond, Calif.). Bound antibody was visualized with horseradish peroxidase-coupled rabbit anti-mouse or goat anti-rabbit antibody (BioRad, Hercules, Calif.), using the chemiluminescence detection system (Pierce, Rockford, Ill.). The chemiluminescence was quantified with the aid of the lumi-imager system (Boehringer, Mannheim, Germany).
(Immunoblotting shows a protein as a band on a membrane.)

The target of a further experiment is Fpr1-Cub-Dha (Saccharomyces cerevisiae, UniProt P20081 1-114; P0CG63 35-76; P00375 1-187). The experiment in a line: split-ubiquitin in trans: coexpression in yeast, anti-ha immunoblot of cleaved Dha. From the text:
(§1) A significant extent of the observed cleavage could arise from the intermolecular reassociation of two Ub-halves that are linked to two different polypeptides. To estimate the contribution of the intermolecular Ub-reassociation, Guk1-Cub-Dha was coexpressed with several versions of Nub-Guk1-ha as was Fpr1-Cub-Dha with several versions of Nub-Fpr1-ha (FIG. 4a). Good intermolecular Nub—Cub reassociation is only seen in cells expressing the Nᵢᵢ-fusions, whereas none or only background cleavage is seen in those cells co-expressing the corresponding Nig-fusions. Nub-mutants with a lower affinity for Cub than Nig were therefore not tested. It thus can be concluded that the cleaved Dha observed for Nig—Cub fusion proteins and for those fusion proteins containing a Nub with a lower affinity for Cub than Nig must result exclusively from the intramolecular reassociation of the coupled Ub-peptides. The structure of Guk1p offers a reasonable explanation for this observation, that can not apply for the Fpr1p fusion proteins. Here the reassociation must either occur before Fpr1p is folded or after the unfolding of the already matured protein. […] We conclude that the fraction of cleaved Dha which is detected in the immunoblot analysis of cells expressing Nvg-Fpr1-Cub-Dha is largely derived from fusion proteins which stayed in the cytosol long enough to give the Fpr1-moiety sufficient time to fold.

The next experiment has as its target Guk1-Cub-Dha (Saccharomyces cerevisiae, UniProt P15454 1-187; P0CG63 35-76; P00375 1-187). The description is as above.
Text: as §1

Changes are numbered by the printed parent chain.

HA-tagged Ste4p (Saccharomyces cerevisiae), sequence (P18851 other isoform, or with tags, fused parts or gaps limits assumed): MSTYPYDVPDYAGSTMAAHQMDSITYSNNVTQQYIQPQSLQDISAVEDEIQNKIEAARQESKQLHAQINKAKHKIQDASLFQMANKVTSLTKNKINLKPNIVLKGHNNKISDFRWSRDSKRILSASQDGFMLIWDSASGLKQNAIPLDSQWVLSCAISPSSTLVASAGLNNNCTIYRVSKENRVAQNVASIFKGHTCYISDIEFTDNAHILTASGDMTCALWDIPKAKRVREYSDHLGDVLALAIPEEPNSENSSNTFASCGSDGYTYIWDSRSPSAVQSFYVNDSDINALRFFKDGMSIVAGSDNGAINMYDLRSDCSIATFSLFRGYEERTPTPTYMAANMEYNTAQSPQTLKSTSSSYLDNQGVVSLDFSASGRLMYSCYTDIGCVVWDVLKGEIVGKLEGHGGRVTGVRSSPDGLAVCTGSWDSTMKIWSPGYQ
Fpr1-Cub-Dha, sequence (P20081 other isoform, or with tags, fused parts or gaps): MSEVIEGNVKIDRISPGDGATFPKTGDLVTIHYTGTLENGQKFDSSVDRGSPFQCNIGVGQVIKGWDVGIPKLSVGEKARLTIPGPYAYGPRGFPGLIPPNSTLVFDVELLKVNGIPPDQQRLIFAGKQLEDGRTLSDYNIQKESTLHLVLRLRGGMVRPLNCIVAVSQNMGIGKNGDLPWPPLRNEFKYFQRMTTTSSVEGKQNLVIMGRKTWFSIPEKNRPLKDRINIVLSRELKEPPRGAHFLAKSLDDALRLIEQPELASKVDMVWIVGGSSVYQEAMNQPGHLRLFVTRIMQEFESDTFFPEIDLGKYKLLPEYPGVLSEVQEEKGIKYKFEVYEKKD
Guk1-Cub-Dha, sequence (P15454 other isoform, or with tags, fused parts or gaps): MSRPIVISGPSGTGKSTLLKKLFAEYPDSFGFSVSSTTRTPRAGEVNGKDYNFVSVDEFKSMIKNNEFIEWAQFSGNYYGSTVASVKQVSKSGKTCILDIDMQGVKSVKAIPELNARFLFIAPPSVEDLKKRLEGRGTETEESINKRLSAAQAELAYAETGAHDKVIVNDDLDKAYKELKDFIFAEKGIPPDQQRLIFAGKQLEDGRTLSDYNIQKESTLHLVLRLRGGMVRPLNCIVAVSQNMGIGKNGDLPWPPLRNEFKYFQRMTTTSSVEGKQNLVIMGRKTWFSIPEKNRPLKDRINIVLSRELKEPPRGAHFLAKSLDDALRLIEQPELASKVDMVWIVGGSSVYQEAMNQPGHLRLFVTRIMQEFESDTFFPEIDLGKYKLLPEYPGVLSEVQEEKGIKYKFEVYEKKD

For the molecule “wild type p53core: p53 core domain (amino acids 102-292) in Nub-p53core-Cub—RUra3p fusion”, in the experiment on yeast cells, the “growth on media containing 5-FOA” value is listed as “growth”. “Nvg-Ste1891-Cub-Dha (from UniProt P0CG63 1-37; P18852 20-105; P0CG63 35-76; P00375 1-187)”: in experiment [1], the fraction of uncleaved fusion protein (ratio of uncleaved to cleaved) with HA-Ste4p against without, inducing conditions (+Cu2+) came out at 2 fold and the fraction of uncleaved fusion protein (ratio of uncleaved to cleaved) with HA-Ste4p against without, non-inducing conditions stood at 3.6 fold. For “Nvg-Ste1874-Cub-Dha (from UniProt P0CG63 1-37; P18852 37-105; P0CG63 35-76; P00375 1-187)”, the ratio of uncleaved to cleaved fusion protein with HA-Ste4p against without, expression not induced by copper in experiment [1] was 1.6 fold.

B1: Guk1V5R: Fusion construct of Guk1p with valine 5 replaced by arginine (protein, UniProt P15454 2-187, looked up, variant V5R)
Guanylate kinase: SRPIRISGPSGTGKSTLLKKLFAEYPDSFGFSVSSTTRTPRAGEVNGKDYNFVSVDEFKSMIKNNEFIEWAQFSGNYYGSTVASVKQVSKSGKTCILDIDMQGVKSVKAIPELNARFLFIAPPSVEDLKKRLEGRGTETEESINKRLSAAQAELAYAETGAHDKVIVNDDLDKAYKELKDFIFAEK
modifications: split-ubiquitin fusion construct
notes: Fusion construct of Guk1p with valine 5 replaced by arginine
B1: the “cleavage (percentage of cleaved Dha compared to the sum of cleaved and uncleaved fusion protein)” value in the experiment with S. cerevisiae cells was 61%.

B2: Nvg-Guk1G8R—Cub-Dha: Nvg—Cub-Dha fusion of Guk1p with glycine 8 replaced by arginine (protein, UniProt P15454 2-187, looked up, variant G8R)
Guanylate kinase: B1 Guanylate kinase with R5V, G8R
modifications: fused to Nvg, Cub, Dha
notes: Nvg—Cub-Dha fusion of Guk1p with glycine 8 replaced by arginine
With B2, the “cleavage of fusion protein (in words)” value in the experiment with S. cerevisiae cells (anti-HA immunoblot) is listed as “cleaved as completely as the corresponding wild type construct”.

B3: Fpr1V107A (protein, UniProt P20081 2-114, looked up, variant V107A)
FK506-binding protein 1: SEVIEGNVKIDRISPGDGATFPKTGDLVTIHYTGTLENGQKFDSSVDRGSPFQCNIGVGQVIKGWDVGIPKLSVGEKARLTIPGPYAYGPRGFPGLIPPNSTLVFDAELLKVN
On to B3, for which the “cleavage (percentage of cleaved Dha compared to the sum of cleaved and uncleaved fusion protein)” value in the experiment on S. cerevisiae cells is given as 55%.

B4: Fpr1V107G (protein, UniProt P20081 2-114, looked up, variant V107G)
FK506-binding protein 1: B3 FK506-binding protein 1 with A107G
Consider B4, for which the “cleavage (percentage of cleaved Dha compared to the sum of cleaved and uncleaved fusion protein)” value in the experiment with S. cerevisiae cells came out at 40%.

B5: Nig-Fpr1-ha (other, UniProt P0CG63 1-37, looked up, not shown: small tags and cut ends)
chain: MQIFVKTLTGKTGTLEVESSDTIDNVKSKIQDKEGIPMSEVIEGNVKIDRISPGDGATFPKTGDLVTIHYTGTLENGQKFDSSVDRGSPFQCNIGVGQVIKGWDVGIPKLSVGEKARLTIPGPYAYGPRGFPGLIPPNSTLVFDVELLKVN
notes: also called Nub-Fpr1-ha; Nig-fusion
In the case of B5, the binding result with Fpr1-Cub-Dha is reported as “no binding”.

B6: Nig-Guk1-ha (other, UniProt P0CG63 1-37, looked up, not shown: small tags and cut ends)
chain: MQIFVKTLTGKTGTLEVESSDTIDNVKSKIQDKEGIPMSRPIVISGPSGTGKSTLLKKLFAEYPDSFGFSVSSTTRTPRAGEVNGKDYNFVSVDEFKSMIKNNEFIEWAQFSGNYYGSTVASVKQVSKSGKTCILDIDMQGVKSVKAIPELNARFLFIAPPSVEDLKKRLEGRGTETEESINKRLSAAQAELAYAETGAHDKVIVNDDLDKAYKELKDFIFAEK
notes: also called Nub-Guk1-ha; Nig-fusion
For B6, the binding result with Guk1-Cub-Dha is on record as “no binding”.

The record behind these values is patent US20040053388A1, “Detection of protein conformation using a split ubiquitin reporter system” (priority 2003, published 2004).
